This is an account of results in patent US20210188980A1 (SHANGHAI EPIMAB BIOTHERAPEUTICS, published 2021).

The target in experiment [1] is T1, human PD-1 expressed on cells (human, UniProt Q15116 25-288).
T1 construct: whole, on cells; also called CHO-K1/huPD-1; CHO-K1-hPD-1 cells
Put plainly: cell RBA FACS, CHO-K1-huPD1; competitor biotin-PD-L1/Fc. Here is the method: (§1) All 15 humanized antibodies and the chimeric antibody (mAb709c) were characterized by binding ELISA and cell-based RBA. For cell-based RBA, 2×10⁵ cells/well of CHO-K1-huPD1 cells were added to a pre-blocked 96-well round-bottomed plate and after washing, 50 μl antibodies with diluted concentration ranging from 0.064 nM to 200 nM were added to each well. Next, 50 μl of 60 μg/ml biotinylated PD-L1/Fc or biotinylated PD-L2/Fc protein were added. After gentle mixing and incubation at 4° C., the cells were washed and stained by Alexa Fluor™ 488 streptavidin solution (1:1000, ThermoFisher Scientific; Cat. No. S32354). Signals were readout by FACS and curves were fitted by GraphPad software. […] The association and dissociation rate constants, k (M⁻¹ s⁻¹) and koff(s⁻¹), respectively, were determined by making kinetic binding measurements at five different concentrations of human PD-1-His protein at a continuous flow rate of 30 μl/min. The equilibrium dissociation constant KD (M) of the reaction between antibodies and related target proteins was calculated from the kinetic rate constants using the formula KD=koff/kₒₙ. HumAb709-8 had minimal back-mutation(s) while maintaining to the greatest extent the affinity of the parental variable domains on chimeric mAb709c.

A further experiment deals with T2, human PD-1-His protein (human, UniProt Q15116 25-167, limits assumed).
T2 construct: also called huPD-1; not shown: His tag
Put plainly: SPR Biacore, Ab captured, huPD-1-His analyte. Here is the method: as §1

The target of experiment [2] is T1, human PD-1 expressed on cells. Put plainly: cell RBA FACS, CHO-K1-huPD1; competitor biotin-PD-L2/Fc. As for the experimental part: as §1

T2 sequence (Q15116 25-167 limits assumed): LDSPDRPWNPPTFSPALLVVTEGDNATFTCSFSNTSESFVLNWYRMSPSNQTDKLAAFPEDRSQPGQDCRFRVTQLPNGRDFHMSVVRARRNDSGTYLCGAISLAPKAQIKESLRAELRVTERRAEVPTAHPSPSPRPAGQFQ
T1 sequence (Q15116 25-288): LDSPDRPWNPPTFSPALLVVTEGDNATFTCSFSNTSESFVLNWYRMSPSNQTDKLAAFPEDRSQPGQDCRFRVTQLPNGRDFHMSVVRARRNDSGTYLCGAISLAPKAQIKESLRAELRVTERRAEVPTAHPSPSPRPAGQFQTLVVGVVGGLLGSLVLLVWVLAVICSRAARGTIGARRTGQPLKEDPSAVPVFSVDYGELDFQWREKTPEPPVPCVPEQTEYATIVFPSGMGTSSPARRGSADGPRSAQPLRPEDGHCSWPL

B1: HumAb709-7 (antibody, human IgG1, kappa, L234A L235A, V domains shown)
VH: EVQLVESGGGLVQPGGSLRLSCAASGFTFSFYTMSWVRQAPGKGLEWVATISGGGRDTYYPDSVKGRFTISRDNAKNSLYLQMNSLRAEDTAVYYCARQGGNYLFAYWGQGTLVTVSS
VL: DIVMTQSPSSLSASVGDRVTITCKASQDVNTVVAWYQQKPGKAPKVLISWASTRHTGVPSRFSGSGSGTDYTLTISSLQPEDFATYYCQQHYTTPYTFGGGTKVEIKR
notes: humanized mAb709
Consider B1, for which, in experiment [1], the IC50 (usually the concentration at which inhibition is half-maximal) was 0.4 nM. Further, in the experiment with human PD-1-His protein, the Kd – broadly, a measure of binding affinity in units of concentration – came to 2.36 nM; the off-rate constant (koff) (as a rule, the rate constant with which the complex falls apart) is 0.000336 s⁻¹; the kon (as a rule, a measure of how fast the partners come together) was determined as 141000 M⁻¹ s⁻¹. In experiment [2], this molecule registered an IC50 of 0.84 nM.

B2: HumAb709-8 (antibody, human IgG1, kappa, L234A L235A, V domains shown)
VH: EVQLVESGGGLVQPGGSLRLSCAASGFTFSFYTMSWVRQAPGKGLEWVATISGGGRDTYYPDSVKGRFTISRDNAKNSLYLQMNSLRAEDTAVYYCAGQGGNYLFAYWGQGTLVTVSS
VL: DIVMTQSPSSLSASVGDRVTITCKASQDVNTVVAWYQQKPGKAPKVLISWASTRHTGVPSRFSGSGSGTDYTLTISSLQPEDFATYYCQQHYTTPYTFGGGTKVEIKR
notes: humanized mAb709; also called HurnAb709-8
B2: in experiment [1], the concentration for half-maximal inhibition (IC50) was found to be 0.44 nM. In the experiment with human PD-1-His protein, binding was put at a Kd of 0.368 nM, the koff is 4.69e-05 s⁻¹ and the kon came to 127000 M⁻¹ s⁻¹. The same molecule displayed an IC50 in experiment [2] of 1 nM.

B3: HumAb709-1 (antibody, human IgG1, kappa, L234A L235A, V domains shown)
VH: EVQLVESGGGLVQPGGSLRLSCAASGFTFSFYTMSWVRQAPGKGLEWVATISGGGRDTYYPDSVKGRFTISRDNAKNSLYLQMNSLRAEDTAVYYCARQGGNYLFAYWGQGTLVTVSS
VL: DIQMTQSPSSLSASVGDRVTITCKASQDVNTVVAWYQQKPGKAPKLLIYWASTRHTGVPSRFSGSGSGTDYTLTISSLQPEDFATYYCQQHYTTPYTFGGGTKVEIKR
notes: humanized mAb709
As for B3, the IC50 in experiment [1] is 1.02 nM. In the experiment with human PD-1-His protein, this molecule yielded a Kd of 11 nM, a koff of 0.00215 s⁻¹ and a kon of 195000 M⁻¹ s⁻¹. The same molecule returned an IC50 in experiment [2] of 1.64 nM.

B4: HumAb709-6 (antibody, human IgG1, kappa, L234A L235A, V domains shown)
VH: EVQLVESGGGLVQPGGSLRLSCAASGFTFSFYTMSWVRQAPGKRLEWVATISGGGRDTYYPDSVKGRFTISRDNAKNSLYLQMNSLRAEDTAVYYCAGQGGNYLFAYWGQGTLVTVSS
VL: DIQMTQSPSSLSASVGDRVTITCKASQDVNTVVAWYQQKPGKAPKLLISWASTRHTGVPSRFSGSGSGTDYTLTISSLQPEDFATYYCQQHYTTPYTFGGGTKVEIKR
notes: humanized mAb709
As for B4, the IC50 was 1.23 nM in experiment [1] and 1.26 nM in experiment [2].

B5: HumAb709-3 (antibody, human IgG1, kappa, L234A L235A, V domains shown)
VH: EVQLVESGGGLVQPGGSLRLSCAASGFTFSFYTMSWVRQAPGKRLEWVATISGGGRDTYYPDSVKGRFTISRDNAKNSLYLQMNSLRAEDTAVYYCAGQGGNYLFAYWGQGTLVTVSS
VL: DIQMTQSPSSLSASVGDRVTITCKASQDVNTVVAWYQQKPGKAPKLLIYWASTRHTGVPSRFSGSGSGTDYTLTISSLQPEDFATYYCQQHYTTPYTFGGGTKVEIKR
notes: humanized mAb709
Regarding B5, the concentration for half-maximal inhibition (IC50) is 1.25 nM in experiment [1] and 1.64 nM in experiment [2].

B6: HumAb709-11 (antibody, human IgG1, kappa, L234A L235A, V domains shown)
VH: EVQLVESGGGLVQPGGSLRLSCAASGFTFSFYTMSWVRQAPGKGLEWVATISGGGRDTYYPDSVKGRFTISRDNAKNSLYLQMNSLRAEDTAVYYCAGQGGNYLFAYWGQGTLVTVSS
VL: DIVMTQSPSSLSASVGDRVTITCKASQDVNTVVAWYQQKPGKAPKVLISWASTRHTGVPSRFTGSGSGTDYTLTISSLQPEDFATYYCQQHYTTPYTFGGGTKVEIKR
notes: humanized mAb709
Take B6: the IC50 in experiment [1] amounted to 0.55 nM; in experiment [2] it was 0.92 nM.

B7: HumAb709-15 (antibody, human IgG1, kappa, L234A L235A, V domains shown)
VH: EVQLVESGGGLVQPGGSLRLSCAASGFTFSFYTMSWVRQAPGKRLEWVATISGGGRDTYYPDSVKGRFTISRDNAKNSLYLQMNSLRAEDTAVYYCAGQGGNYLFAYWGQGTLVTVSS
VL: DIVMTQSPSSLSASVGDRVTITCKASQDVNTVVAWYQQKPGKSLKVLISWASTRHTGVPSRFTGSGSGTDYTLTISSLQPEDFATYYCQQHYTTPYTFGGGTKVEIKR
notes: humanized mAb709
For B7, the IC50 came out at 0.9 nM in experiment [1] and 1.21 nM in experiment [2].

B8: HumAb709-5 (antibody, human IgG1, kappa, L234A L235A, V domains shown)
VH: EVQLVESGGGLVQPGGSLRLSCAASGFTFSFYTMSWVRQAPGKGLEWVATISGGGRDTYYPDSVKGRFTISRDNAKNSLYLQMNSLRAEDTAVYYCAGQGGNYLFAYWGQGTLVTVSS
VL: DIQMTQSPSSLSASVGDRVTITCKASQDVNTVVAWYQQKPGKAPKLLISWASTRHTGVPSRFSGSGSGTDYTLTISSLQPEDFATYYCQQHYTTPYTFGGGTKVEIKR
notes: humanized mAb709
As for B8, the half-inhibitory concentration (IC50) in experiment [1] amounted to 0.67 nM; in experiment [2], 0.97 nM.

B9: HumAb709-12 (antibody, human IgG1, kappa, L234A L235A, V domains shown)
VH: EVQLVESGGGLVQPGGSLRLSCAASGFTFSFYTMSWVRQAPGKRLEWVATISGGGRDTYYPDSVKGRFTISRDNAKNSLYLQMNSLRAEDTAVYYCAGQGGNYLFAYWGQGTLVTVSS
VL: DIVMTQSPSSLSASVGDRVTITCKASQDVNTVVAWYQQKPGKAPKVLISWASTRHTGVPSRFTGSGSGTDYTLTISSLQPEDFATYYCQQHYTTPYTFGGGTKVEIKR
notes: humanized mAb709; also called HuntAb709-12
As for B9, the IC50 in experiment [1] amounted to 0.45 nM; in experiment [2] it was 1.35 nM.

B10: HumAb709-9 (antibody, human IgG1, kappa, L234A L235A, V domains shown)
VH: EVQLVESGGGLVQPGGSLRLSCAASGFTFSFYTMSWVRQAPGKRLEWVATISGGGRDTYYPDSVKGRFTISRDNAKNSLYLQMNSLRAEDTAVYYCAGQGGNYLFAYWGQGTLVTVSS
VL: DIVMTQSPSSLSASVGDRVTITCKASQDVNTVVAWYQQKPGKAPKVLISWASTRHTGVPSRFSGSGSGTDYTLTISSLQPEDFATYYCQQHYTTPYTFGGGTKVEIKR
notes: humanized mAb709
For B10, the results for the IC50 in experiment [1] and in experiment [2] were 1.04 nM and 1.76 nM, respectively.

B11: HumAb709-2 (antibody, human IgG1, kappa, L234A L235A, V domains shown)
VH: EVQLVESGGGLVQPGGSLRLSCAASGFTFSFYTMSWVRQAPGKGLEWVATISGGGRDTYYPDSVKGRFTISRDNAKNSLYLQMNSLRAEDTAVYYCAGQGGNYLFAYWGQGTLVTVSS
VL: DIQMTQSPSSLSASVGDRVTITCKASQDVNTVVAWYQQKPGKAPKLLIYWASTRHTGVPSRFSGSGSGTDYTLTISSLQPEDFATYYCQQHYTTPYTFGGGTKVEIKR
notes: humanized mAb709
The molecule B11 yielded an IC50 in experiment [1] of 0.47 nM. For the same molecule, in the experiment with human PD-1-His protein, the Kd was determined as 0.684 nM, the koff is 5.5e-05 s⁻¹ and the kon came to 80300 M⁻¹ s⁻¹. Moreover, the half-maximal inhibitory concentration (IC50) in experiment [2] was found to be 0.99 nM.

B12: HumAb709-14 (antibody, human IgG1, kappa, L234A L235A, V domains shown)
VH: EVQLVESGGGLVQPGGSLRLSCAASGFTFSFYTMSWVRQAPGKGLEWVATISGGGRDTYYPDSVKGRFTISRDNAKNSLYLQMNSLRAEDTAVYYCAGQGGNYLFAYWGQGTLVTVSS
VL: DIVMTQSPSSLSASVGDRVTITCKASQDVNTVVAWYQQKPGKSLKVLISWASTRHTGVPSRFTGSGSGTDYTLTISSLQPEDFATYYCQQHYTTPYTFGGGTKVEIKR
notes: humanized mAb709
With B12, the values for the IC50 in experiment [1] and in experiment [2] were 0.51 nM and 0.92 nM, respectively.

B13: HumAb709-13 (antibody, human IgG1, kappa, L234A L235A, V domains shown)
VH: EVQLVESGGGLVQPGGSLRLSCAASGFTFSFYTMSWVRQAPGKGLEWVATISGGGRDTYYPDSVKGRFTISRDNAKNSLYLQMNSLRAEDTAVYYCARQGGNYLFAYWGQGTLVTVSS
VL: DIVMTQSPSSLSASVGDRVTITCKASQDVNTVVAWYQQKPGKSLKVLISWASTRHTGVPSRFTGSGSGTDYTLTISSLQPEDFATYYCQQHYTTPYTFGGGTKVEIKR
notes: humanized mAb709
For the molecule B13, the values for the IC50 in experiment [1] and in experiment [2] were 0.5 nM and 0.78 nM, respectively.

B14: HumAb709-10 (antibody, human IgG1, kappa, L234A L235A, V domains shown)
VH: EVQLVESGGGLVQPGGSLRLSCAASGFTFSFYTMSWVRQAPGKGLEWVATISGGGRDTYYPDSVKGRFTISRDNAKNSLYLQMNSLRAEDTAVYYCARQGGNYLFAYWGQGTLVTVSS
VL: DIVMTQSPSSLSASVGDRVTITCKASQDVNTVVAWYQQKPGKAPKVLISWASTRHTGVPSRFTGSGSGTDYTLTISSLQPEDFATYYCQQHYTTPYTFGGGTKVEIKR
notes: humanized mAb709
In turn, B14 returned an IC50 in experiment [1] of 0.29 nM. In the experiment with human PD-1-His protein, this molecule registered a Kd of 2.04 nM, an off-rate (koff) of 0.000297 s⁻¹ and a kon of 146000 M⁻¹ s⁻¹. Further, the IC50 in experiment [2] was determined as 0.8 nM.

B15: HumAb709-4 (antibody, human IgG1, kappa, L234A L235A, V domains shown)
VH: EVQLVESGGGLVQPGGSLRLSCAASGFTFSFYTMSWVRQAPGKGLEWVATISGGGRDTYYPDSVKGRFTISRDNAKNSLYLQMNSLRAEDTAVYYCARQGGNYLFAYWGQGTLVTVSS
VL: DIQMTQSPSSLSASVGDRVTITCKASQDVNTVVAWYQQKPGKAPKLLISWASTRHTGVPSRFSGSGSGTDYTLTISSLQPEDFATYYCQQHYTTPYTFGGGTKVEIKR
notes: humanized mAb709
On to B15, for which the IC50 in experiment [1] came out at 0.78 nM; in experiment [2] it was 1.68 nM.
